Test results reported in the DeepSol protein solubility set.

test: soluble on expression in E. coli; label from the status in PepcDB or PDB records

Row | Sequence | soluble on expression in E. coli
1 | MSEWRGFNRKGNTMKIRPGRHNAPDFPHGAAVTIGNFDGVHLGHKHILQKLRLEADARGLPVVAVVFEPQPKEFFALRTGKTPPCRISPLRTKLELLEGTGCVDAAWVLRFDRNFSEISAQAFIDRLLRQTLNTRYLLVGDDFRFGAGREGCFELLAQQPDMQTERTPSVIVEDIRTSSTAVRQALSDGNLAYAKKLLGHDYVLGGRVVHGRKLGRTLNAPTANIRLPGHRYALGGVFVVEADGAFGTRRGVASFGFNPTVDGGCSQKLEVHLFDFQGDLYGQRLNVRFLHKLRDEEKFDGMEELKRRIEADMEAAKCW | not soluble
2 | MSEYRVNHEPVFMLASSPWRESSLWVEAFSRRYGRVALLARSARKRQSELRGVLVPFVPVSVSWYGSQELKTLHRAEWVGGWRQPQGRALFGGLYVNELVLKLTAREDPVPELYDALAEVMEAVCCKAAYIDDLRRFEWRLLNLLGVAPDLNRDGDGGTIAAGGTYLVRPETAVFPVGKGFAVPPHAAGVVAPGQSLIDLREGSFRTAESLQQALKITRLFIRHLLPEGLKSRQVLEQIRQFDRKETARETVPTSDGTASNAV | not soluble
3 | MSFKDFSFEFNGEPIHFSITSHPDKDLVHFNSTGRIGQVIEVIQPPEILSSQLSDQQRVEYELKSLLGNPELPGVELFIRRFVIHFAGTNQRKSALFVFGIDLDGIPNECIAAALQALEENH | not soluble
4 | MSGAVLPAVLVVPKMESVVVPIAESTVINAKDTTPSTAADNDVSPSPSEPDTDAIKMFVGQIPRQWNETDCRRLFEKYGSVFSCNILRDKSTQASKGCCFVTFYHRKDAIEAQGALHNIKVIEGMHHPVQMKPADTENRNERKLFIGQLSKKHNEENLREIFAKFGHIEDCSVLRDQDGKSRGCAFVTFTNRSCAVVATKEMHHSQTMEGCSAPLVVKFADTQKDKDVKTKSMITGSGAGSPKGGAASLLQNLNPALLQQLGGGQNYQAVASLLSLINGQQGQQQQHQQQQNVLGILGTVLSALGKLTEGGDDASAKSSSEKPRHQALMTSPAPTATSSTSSSASHHHQQHQQQLSQQQQQQQHPQQQGLGNPLLGNPAMAAQNQFDAITMAQIAHQQQMLALQGFAVQQGAPSQQQQGLAGGMAGAKTTSPVAASLANHQQIALTPFAGGAAALDHFQAMQQYALLANLQATGGVGVQATTSAAQMVGNGDVKGPDGANLFIYHLPQDFGDSDLINTFAPFGGILSAKVFIDKVTNLSKCFGFVSYENAQSATNAISAMNGFQIGSKRLKVQLKVDRGNPYNR | not soluble
5 | MSGEDDYNSDDEANKNLSKKELQELKRKQQKSKKKKESKKRAKATKQAEIETREEPKKEEENGDDLDVEIDYIGETIEIEPDNPHAQYFSAIFDAFKISTDSEDGFSYGHHVSKGEKKDDLGKVGQAERIIQEEMEERAKENTEEKLSRRKLRISLQPSIAKLKETTLRADVVEWADVTSRDPYLLVAMKSYRNSVPVPRHWNAKRKYLAGKRGFERPPFELPDFIKRTGIQDMREALLEKEESQSLKSKMRERARPKLGKIDIDYQKLHDAFFKWQTKPAMTKMGELYYEGKEMEAMMRDKKPGEMSDELRIALGMPIGSNAFKFPPPWLIAMQRYGPPPSFPHIKIPGLNAPIPEGCAFGYHAGGWGKPPVDEYGHPLYGDVFGLAAPAFEPEDESQIERRYWGEIGSDESSDEEESEEEEHADDDDADVEGGFQTPAPVEGMITPSGMTTGITGIETPDTIELRKGKESSVLGTDTPAAAYHIIPEKKNERIGGQMMASSHTYDLSKKHAVRDDGVQISLDPESIDMDEQGLAARYEEQLRKQKHRDDDDEDREDLTDMVAEHAAKQNRKRKVQDDKKNKTSSSSSSGSSGKKHKDFKF | not soluble
6 | MSGFYNRGKMKFIHAADIHLGNPISGIDRKINLPEEVKKQIALATFTAFSNVIKLAVDRHVDFVLFPGDLFDSSQQSAYLYNFLNQQFQNLKEAGIEAFISFGNHDFQSDVENDFIWPENVHAFPKSKAKTFFHDSWDGKRVAITGTSFVVRNPRESLVPLYPSRDQSATYQIGMYHGSQGNSSANNYAPFSVGDLQALNYDYWALGHIHVRQVLSKNPAIVYSGDPQGLDLTETGEKGVYFVSDENDQGGLTAEFVPCSSFVFDSFELSINDQSAISNISDLIVQELLSFNHKKMSLNAIRVNLSASLPEKILDQLTDTSFLDLVNSKTIREKQFLIKMDLNVDQKKDNFNQLEERYWQAAKNDVFDEQSFNQALLRTFNSNQQFVIRHFTDPNVQAKLMSKAEQIISERIS | not soluble
7 | MSGGSSRRYPPELRERAVRMVAEIRGQHDSEWAAISEVARLLGVGCAETVRKWVRQAQVDAGARPGTTTEESAELKRLRRDNAELRRANAILKTASAFFAAELDRPAR | soluble
8 | MSGHFNYIVVGRGMMGAAAARHLAETVDGVALIGPGEPADIKSHQGVFASHYDEARITRTIDGDPDWALLANRSIARYADIAARSGVEFYAPVGCLMVGPERGGANPFVDDVLRAAARLGVSTELLGDQSLKSRFPYFSFEPGCEGVFERDNAGYVNPRALVKAQAILAEKAGVTLIDDIVVSTREEDGRASVQTASGAVYTAERVLVAAGGFSITRDLLPQPVGLDVYARTVAFFEIDEGDLGQYAGMPSLIYEPHDTTKHIYLLPPVRYPDGKFYLKIGGDPDDKRVGSDPEIREWFRSGGRESVRDHLSEIVGTLVPSVDHSRVSMAACVVSKTKSGYPAIGFTASPRIAVLTGGNGTAAKSSDEIGRLGAALLRDGKIADDAFSTDFKPEFL | not soluble
9 | MSGNTVKLNVGGTVFETLKSTLTKHDGFFKALIETDVPAEKDDSNCFFIDRSPKHFETVLNYMRSGDVVLPDSKKDMLELKKEAEYYLLSNLAKLCQPPTDNFKTCTPEELMRVVANTDKKVIMINYLTYNGELVFYPWGFNLVHFLIQNRDYVEDVYFRRTESQYPEDGPFPNEKPYWTFLVYNSTRSGRRPFRHTVDLEDCMGHM | not soluble
10 | MSGRRKGCSAATASSSSSSPPSRLPPLPGHARRPRRKRCLVPEVFCTRDLADLCVRRDYEGLRRYLRRFEGSCVSLGWPSQCIYVVGGEHSPHSLTEIDLEHCQNDFFGEFRALHLIGTVSHATCRYQVFVDAYGAVFAYDAQEDCLYELASDLAGFFAKGMIRCDPVHESICARLQPNVPLVHPDHRAELCRRSRASARGRYLRSLLAFRELLACEDTAARCAYVEAHREAQLTLIWPEKHSLVLRTARDLGLSASMLRRFQRSLYTREPVMPLGEIEGAEDKTFFHRVRILCGDTGTVYAALVGQDKLVRLARDLRGFVRVGLALLIDDFRYESIGPVDRSSLYEANPELRLPFKKRRLEHHHHHH | not soluble
11 | MSHENQENYDDYNGDHDNKYDQQYDESSRGDDFGGRGRGFNGPPGGAGSFFGVPPAARGRGGPGMAPPGFAGRGRGFATPGMSSGFAPRGRGMPPGRGGYMPPYRGGYGVAPNGGPGAYGGPYNGGPGAYGAQAPGPNPQDQEQRLKRLSGCEEGQELWVETETAEGKKYFYHPVNRNTIWERPQNAKIVTQPELAQLIHRATEEEKNREERMPHGQIPQNPDDAWNEFNAPDGRKYYFNSITQENTWEKPKALIDQENGGGASPEPVQSAAIAEAQAKAQAALAAFMAQQKTSSNGGGGMPLSKAQASGAAAAAAVNAEAAKKKDSTRPISSTPVSGTPWCVVWTGDDKVFFYNPSTKCSVWERPPDTYGREDVDKLVQNPPSPKAEEENNQSKKESESESESDEDGPPKAKKSRAEKKKEALIAAQKKEKERPRQMLQKPVDPAIEAEMQAAKEREKVPLEERLKQFKEMLEEKNVSTSSTFEKELSKIVFDKRYLSLGATERRACFDAFCREKIESEKAERRKRVKEAKEEFQKLLAECELNGRSSYSSFTSKFGKDPRYKAVERNRDREDAFNDFVGELHKKEKDEKRAKKEKLKAAFVKLLEEQTGLTRKSKWSTTKKTLEDEERYIALDSSSTRESLFREFVANLGDETASDIEEEQEREKRLAAQTAIANRQKEVEAELGNQLRERTKESEKQKMGEHEDTYRNLLIDLIKSTENSWHEARRILRKDERYANCDMLDKTRKESLFDDHIKSLERKRREAFFQVLDNHEKITPMMRWRDAKKIIQDEEETFVKIASNSERKVERDFRDWQERRHDHLTDEFKEMLSETKIITHKSKKLMEEGEQHMDILSVLENDKRWVRMTAMSASERDRMLEDHIENLGRKGTPPPPTQQERDRRKQ | soluble
12 | MSHFLVEKLTKTVGDKTVFQDISFIIHDFDRIGIIGVNGTGKTTLLDVLSGRLGFDGDHSPFSKANDYKIAYLTQDPEFNDAASVLDTVLSADVKAIQLIRQYELLMANYTEDKQESLESLMSEMDRLDAWSIESDVKTVLSKLGITDLEQKVGDLSGGMRRRVQLAQVLLGAADLLLLDEPTNHLDIDTIAWLTTYLKTAKKTVLFITHDRYFLDHVATRIFELDKAGLTEYQGNYQDYVRLKAEQDERDAANLHKKKQLYKQELAWMRTQPQARATKQQARINRFSDLKKEVHQDSSADKLEMTFETSRIGKKVIHFEDLSFAYGDRQLIKDFNLIIQNKDRIGIVGDNGVGKSTLLNIINGDLKPTSGKLDIGDTIRVGYFSQQLKDMDETKRVINYLQEVADEVKTSVGTTSISELLEQFLFPRSSHGTLIAKLSGGEKKRLYLLKLLIEKPNVLLLDEPTNDLDIATLKVLENFLANFAGPVITVSHDRYFLDKVATKILAFEEGDIRVFYGNYSDYLDEKVFEKETVEADLAKTTVTEEVPLPQKEERKRMSYLEKQEWAQIEDKIATIEANIEEIENQMLTVVSDYGQLAQLQKELDQRNNDLLLAYERFEYLSGLDI | not soluble
13 | MSHSIEQLSINTIRTLSIDAIEKANSGHPGMPMGAAPMAYTLWTQFMKHNPNNPTWFNRDRFVLSAGHGSMLLYSLLHLSGYDVTMDDLKNFRQWGSKTPGHPEYGHTAGVDATTGPLGQGIATAVGMAMAERHLAAKYNRDAYNIVDHYTYAICGDGDLMEGVSAEASSLAAHLQLGRLVVLYDSNDISLDGDLNRSFSESVEDRYKAYGWQVIRVEDGNDIEAIAKAIEEAKADEKRPTLIEVRTTIGFGSPNKSGKSASHGSPLGVEETKLTKEAYAWTAEQDFHVAEEVYENFRKTVQDVGETAQAEWNTMLGEYAQAYPELANELQAAMNGLLPEGWEQNLPTYELGSKAATRNSSGAVINAIAESVPSFFGGSADLAGSNKTYMNNEKDFTRDDYSGKNIWYGVREFAMGAAMNGIALHGGLKTYGGTFFVFSDYLRPAIRLAALMQLPVTYVFTHDSIAVGEDGPTHEPIEQLAALRAMPNVSVIRPADGNESVAAWRLALESTNKPTALVLTRQDLPTLEGAKDDTYEKVAKGAYVVSASKKETADVILLATGSEVSLAVEAQKALAVDGVDASVVSMPSMDRFEAQTAEYKESVLPKAVTKRFAIEMGATFGWHRYVGLEGDVLGIDTFGASAPGEKIMEEYGFTVENVVRKVKEML | not soluble
14 | MSHYDILQAPVISEKAYSAMERGVYSFWVSPKATKTEIKDAIQQAFGVRVIGISTMNVPGKRKRVGRFIGQRNDRKKAIVRLAEGQSIEALAGQA | soluble
15 | MSIDIKYLSRIDIDREEFFFKDSRLMCKKFDEEREVLTLLEFDTKFRVNLLKKDKVYKYFLVSDANHKLLIANLVTEQQAKDLSFIEKDIMKIASSATAYGASDIHFIREDRICKIKFRVNGTMIDYREILSSEADALMFVLYNVMATTKETTWNRKLPQDANIILVINEKAYRFRYAHMPLFGEGGKNYHAVVRIIYPSNNFVCTNYQDIGYNEADTDAIARILNTSYGLFIVSGTTGSGKSTSLKKYIELLFFNKYKGKGCFVTVEDPVEYLISGAQQSSIVADNDDKTKNPFADAVRSAMRRDPDVIMIGEIRDKPTVEALSSAVESGHYCLTTIHAGSVVSVLQRLSGLGMKADKIASPGFLAGITSQKLIPELCPSCKVSFVDERYQRAVFSANENGCEACNHSGFKGRLLLLETLVPTVEDLELVASENWVSLYRKYRERRFIKTGKKGLGEGFSIKDKAYYNVLKGKVCHEYFMLHFGQLDHEDENIIYENYLQEV | not soluble
